Results published in patent publication US20250170255A1 (Daiichi Sankyo, published 2025).

Legend:
[1] = biological target: T1, biotinylated human TROP2 antigen (human, UniProt P09758 27-274, C-terminal Avi tag sequence biotinylated); assay: ELISA, immobilised biotinylated human TROP2 antigen, anti-FLAG-HRP detection; without MMP1
T1 construct: extracellular domain
T1 sequence (looked up): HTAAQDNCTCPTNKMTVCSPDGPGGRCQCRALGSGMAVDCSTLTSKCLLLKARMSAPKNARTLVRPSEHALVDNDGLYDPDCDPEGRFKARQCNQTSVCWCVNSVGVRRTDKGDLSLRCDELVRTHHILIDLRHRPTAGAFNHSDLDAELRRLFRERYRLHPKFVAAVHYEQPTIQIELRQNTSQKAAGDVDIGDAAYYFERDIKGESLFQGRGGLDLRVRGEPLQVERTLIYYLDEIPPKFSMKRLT
Method: (§1) NeutrAvidin (Thermo Fisher Scientific) diluted to 1 μg/ml with PBS was added at 50 μl/well to a 96-well Maxi-sorp plate (Black, Nunc) and immobilized at 4° C. overnight. The plate was washed with PBS containing 0.05% (w/v) Tween-20 (BioRad) (ELISA buffer) and then blocked with Blocker Casein (Thermo Fisher Scientific). The plate was washed with ELISA buffer, the biotinylated human TROP2 antigen (Accession Number: P09758; the extracellular domain was purified by the method known to a person skilled in the art and the C-terminal Avi tag sequence was then biotinylated) diluted to 1 μg/ml with PBS was added at 50 μl/well, and the resultant was then agitated for 30 minutes at room temperature. […] The plate was washed with ELISA buffer, the SuperSignal Pico ELISA chemiluminescent substrate (Thermo Fisher Scientific) was added, and chemiluminescence 10 minutes thereafter was then assayed using a plate reader.
(§2) The resultant was then added to the plate comprising the human TROP2 antigen immobilized thereon at 50 μl/well. The bound scFv was detected using the HRP-labeled anti-FLAG antibody (Sigma-Aldrich) diluted to 5,000-fold with ELISA buffer.

[2] = biological target: T1, biotinylated human TROP2 antigen; assay: ELISA, immobilised biotinylated human TROP2 antigen, anti-FLAG-HRP detection; after MMP1 pre-treatment
Method: as §1, §2

[3] = biological target: T1, biotinylated human TROP2 antigen; assay: ELISA with and without uPA
[4] = biological target: T1, biotinylated human TROP2 antigen; assay: ELISA, immobilised biotinylated human TROP2 antigen, chemiluminescence; without uPA
Method: (§3) NeutrAvidin (Thermo Fisher Scientific) diluted to 1 μg/ml with PBS was added at 50 μl/well to a 96-well Maxi-sorp plate (Black, Nunc) and immobilized at 4° C. overnight. The plate was washed with PBS containing 0.05% (w/v) Tween-20 (BioRad) (ELISA buffer) and then blocked with Blocker Casein (Thermo Fisher Scientific). The plate was washed with ELISA buffer, the biotinylated human TROP2 antigen (Accession Number: P09758; the extracellular domain was purified by the method known to a person skilled in the art and the C-terminal Avi tag sequence was then biotinylated) diluted to 1 μg/ml with PBS was added at 50 μl/well, and the resultant was then agitated for 30 minutes at room temperature. […] The plate was washed with ELISA buffer, 50 μl of the horseradish peroxidase (HRP)-labeled anti-human IgG antibody (Jackson Immuno Research Laboratories) diluted to 2,500-fold with ELISA buffer was added, and the resultant was then agitated for 30 minutes at room temperature. The plate was washed with ELISA buffer, the SuperSignal Pico ELISA chemiluminescent substrate (Thermo Fisher Scientific) was added, and chemiluminescence 10 minutes thereafter was then assayed using a plate reader.

[5] = biological target: T1, biotinylated human TROP2 antigen; assay: ELISA, immobilised biotinylated human TROP2 antigen, chemiluminescence; after uPA pre-treatment (mask linker cleaved)
Method: as §3

[6] = biological target: T1, biotinylated human TROP2 antigen; assay: ELISA, immobilised biotinylated human TROP2 antigen, chemiluminescence; pH 5.5
Method: (§4) The plate was washed with PBS containing 0.05% (w/v) Tween-20 (BioRad) (ELISA buffer) and then blocked with Blocker Casein (Thermo Fisher Scientific). The plate was washed with ELISA buffer, the biotinylated human TROP2 antigen (Accession Number: P09758; the extracellular domain was purified by the method known to a person skilled in the art and the C-terminal Avi tag sequence was then biotinylated) diluted to 1 μg/ml with PBS was added at 50 μl/well, and the resultant was then agitated for 30 minutes at room temperature. […] The plate was washed with ELISA buffer, 50 μl of the horseradish peroxidase (HRP)-labeled anti-human IgG antibody (Jackson Immuno Research Laboratories) diluted to 2,500-fold with ELISA buffer was added, and the resultant was then agitated for 30 minutes at room temperature. The plate was washed with ELISA buffer, the SuperSignal Pico ELISA chemiluminescent substrate (Thermo Fisher Scientific) was added, and chemiluminescence 10 minutes thereafter was then assayed using a plate reader. […]

[7] = biological target: T1, biotinylated human TROP2 antigen; assay: ELISA, immobilised biotinylated human TROP2 antigen, chemiluminescence; pH 7.5
Method: as §4

[8] = biological target: T1, biotinylated human TROP2 antigen; assay: ELISA, immobilised biotinylated human TROP2 antigen, chemiluminescence; pH 5.5; remark: listed apart in the source
Method: as §4

[9] = biological target: T1, biotinylated human TROP2 antigen; assay: ELISA, immobilised biotinylated human TROP2 antigen, chemiluminescence; pH 7.5; remark: listed apart in the source
[10] = biological target: T1, biotinylated human TROP2 antigen; assay: ELISA, immobilised biotinylated human TROP2 antigen, chemiluminescence; pH 5.5; remark: listed apart in the source
[11] = biological target: T1, biotinylated human TROP2 antigen; assay: ELISA, immobilised biotinylated human TROP2 antigen, chemiluminescence; pH 6.0
[12] = biological target: T1, biotinylated human TROP2 antigen; assay: ELISA, immobilised biotinylated human TROP2 antigen, chemiluminescence; pH 7.5; remark: listed apart in the source
[13] = biological target: T1, biotinylated human TROP2 antigen; assay: ELISA, immobilised biotinylated human TROP2 antigen, anti-FLAG-HRP detection; without MMP1; remark: listed apart in the source
Method: as §1, §2

[14] = biological target: T1, biotinylated human TROP2 antigen; assay: ELISA, immobilised biotinylated human TROP2 antigen, anti-FLAG-HRP detection; after MMP1 pre-treatment; remark: listed apart in the source
Method: as §1, §2

B1: HT1-11-scFv-LH (scFv)
scFv: ADVNSDIQMTQSPSSLSASVGDRVTITCKASQDVSTAVAWYQQKPGKAPKLLIYSASYRYTGVPSRFSGSGSGTDFTLTISSLQPEDFAVYYCQQHYITPLTFGQGTKLEIKRGGGGSGGGGSGGGGSQVQLVQSGAEVKKPGASVKVSCKASGYTFTTAGMQWVRQAPGQGLEWMGWINTHSGVPKYAEDFKGRVTISADTSTSTAYLQLSSLKSEDTAVYYCARSGFGSSYWYFDVWGQGTLVTVSSGAPSGDYKDDDDKGAAAHHHHHH
notes: Unmasked scFv (VL-VH) expressed in E. coli; Full-length entry
- EC50 (read off the curve) [1]: ~3 nM
- EC50 (read off the curve) [2]: ~3 nM

B2: anti-TROP2 masked antibody MHT1009 (antibody)
heavy: not shown
light: DIQMTQSPSSLSASVGDRVTITCKASQDVSTAVAWYQQKPGKAPKLLIYSASYRYTGVPSRFSGSGSGTDFTLTISSLQPEDFAVYYCQQHYITPLTFGQGTKLEIKRTVAAPSVFIFPPSDEQLKSGTASVVCLLNNFYPREAKVQWKVDNALQSGNSQESVTEQDSKDSTYSLSSTLTLSKADYEKHKVYACEVTHQGLSSPVTKSFNRGEC
notes: Full-length entries
- EC50 ratio of binding intensity (without uPA / with uPA) [3]: 83
- EC50 (read off the curve) [4]: ~90 nM
- EC50 (read off the curve) [5]: ~1 nM

B3: anti-TROP2 masked antibody MHT1808 (antibody)
heavy: not shown
light: B2 light
notes: His cluster linker; Full-length entries
- EC50 (read off the curve) [6]: ~2 nM
- EC50 (read off the curve) [7]: ~50 nM
- EC50 (read off the curve) [8]: ~1 nM
- EC50 (read off the curve) [9]: ~30 nM
- EC50 (read off the curve) [10]: ~1 nM
- EC50 (read off the curve) [11]: ~4 nM
- EC50 (read off the curve) [12]: ~20 nM

B4: HT1-11-scFv-HL (scFv)
scFv: ADVNSQVQLVQSGAEVKKPGASVKVSCKASGYTFTTAGMQWVRQAPGQGLEWMGWINTHSGVPKYAEDFKGRVTISADTSTSTAYLQLSSLKSEDTAVYYCARSGFGSSYWYFDVWGQGTLVTVSSGGGGSGGGGSGGGGSDIQMTQSPSSLSASVGDRVTITCKASQDVSTAVAWYQQKPGKAPKLLIYSASYRYTGVPSRFSGSGSGTDFTLTISSLQPEDFAVYYCQQHYITPLTFGQGTKLEIKRGAPSGDYKDDDDKGAAAHHHHHH
notes: Unmasked scFv (VH-VL) expressed in E. coli, purified by Ni Sepharose; Full-length entry
- EC50 (read off the curve) [13]: ~5 nM
- EC50 (read off the curve) [14]: ~5 nM
